Measurements as given in US20240024477A1.

Biological target: HLA-E bound RL9 presented on cells with their own HLA-E (RL9 pulsed autologous B cells (human; HIV-1) (UniProt P13747)
Experiment: cell-based or functional assay

## irrelevant TCR specific for HLAA*0201-NY-ESO-1157-165 (…) (IG4), transduced into CD8 T cells
  reduction of % p24+ cells, HIV-1 NL4.3-infected primary CD4+ T cells, E:T 5:1: 23.5%
